Measured values taken from US20160264649A1.

Experiments:
Test in all cases: cell-based or functional assay
[1] = biological target: HIV-1 Env of isolate 6535.3 (HIV-1)
[2] = biological target: HIV-1 Env of isolate 92 BR 020 (HIV-1)
[3] = biological target: HIV-1 Env of isolate 93IN905 (HIV-1)
[4] = biological target: HIV-1 Env of isolate 93MW959 (HIV-1)
[5] = biological target: HIV-1 Env of isolate 93TH305 (HIV-1)
[6] = biological target: HIV-1 Env of isolate 97ZA012 (HIV-1)
[7] = biological target: HIV-1 Env of isolate 98IN022 (HIV-1)
[8] = biological target: HIV-1 Env of isolate APV_13 (HIV-1)
[9] = biological target: HIV-1 Env of isolate APV_17 (HIV-1)
[10] = biological target: HIV-1 Env of isolate APV_6 (HIV-1)
[11] = biological target: HIV-1 Env of isolate CAAN.A2 (HIV-1)
[12] = biological target: HIV-1 Env of isolate JRCSF (HIV-1) (UniProt P20871)
[13] = biological target: HIV-1 Env of isolate JRFL (HIV-1)
[14] = biological target: HIV-1 Env of isolate MGRM-Chronic-B-001 (HIV-1)
[15] = biological target: HIV-1 Env of isolate MGRM-Chronic-B-002 (HIV-1)
[16] = biological target: HIV-1 Env of isolate MGRM-Chronic-B-003 (HIV-1)
[17] = biological target: HIV-1 Env of isolate MGRM-Chronic-B-004 (HIV-1)
[18] = biological target: HIV-1 Env of isolate MGRM-Chronic-B-008 (HIV-1)
[19] = biological target: HIV-1 Env of isolate MGRM-Chronic-B-010 (HIV-1)
[20] = biological target: HIV-1 Env of isolate MGRM-Chronic-B-011 (HIV-1)
[21] = biological target: HIV-1 Env of isolate MGRM-Chronic-B-012 (HIV-1)
[22] = biological target: HIV-1 Env of isolate MGRM-Chronic-B-017 (HIV-1)
[23] = biological target: HIV-1 Env of isolate MGRM-Chronic-B-018 (HIV-1)
[24] = biological target: HIV-1 Env of isolate MGRM-Chronic-B-020 (HIV-1)
[25] = biological target: HIV-1 Env of isolate MGRM-Chronic-B-023 (HIV-1)
[26] = biological target: HIV-1 Env of isolate MGRM-Chronic-B-024 (HIV-1)
[27] = biological target: HIV-1 Env of isolate NL43 (HIV-1)
[28] = biological target: HIV-1 Env of isolate PVO.4 (HIV-1)
[29] = biological target: HIV-1 Env of isolate QH0692.42 (HIV-1)
[30] = biological target: HIV-1 Env of isolate SC422661.8 (HIV-1)
[31] = biological target: HIV-1 Env of isolate SF162 (HIV-1) (UniProt P19550)
[32] = biological target: HIV-1 Env of isolate THR0.18 (HIV-1)
[33] = biological target: HIV-1 Env of isolate TRJ04551.58 (HIV-1)
[34] = biological target: HIV-1 Env of isolate TRO.11 (HIV-1)
[35] = biological target: HIV-1 Env of isolate VLGCB3 (HIV-1)

Chain of PGT-137 monoclonal antibody (5345_I01) (VH): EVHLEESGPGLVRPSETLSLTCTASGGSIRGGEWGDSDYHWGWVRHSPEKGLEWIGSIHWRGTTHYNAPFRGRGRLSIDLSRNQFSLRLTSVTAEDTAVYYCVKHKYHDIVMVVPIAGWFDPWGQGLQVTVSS
Chain of PGT-137 monoclonal antibody (5345_I01) (VL): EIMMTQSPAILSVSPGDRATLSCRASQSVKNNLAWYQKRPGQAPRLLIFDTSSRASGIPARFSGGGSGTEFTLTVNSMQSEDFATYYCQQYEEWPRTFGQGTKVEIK
Chain of PGT-136 monoclonal antibody (5329_C19; 5366_P21) (VH): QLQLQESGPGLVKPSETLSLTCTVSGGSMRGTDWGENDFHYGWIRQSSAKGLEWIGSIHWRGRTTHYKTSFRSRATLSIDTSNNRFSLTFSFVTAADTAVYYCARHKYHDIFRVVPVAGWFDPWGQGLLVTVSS
Chain of PGT-136 monoclonal antibody (5329_C19; 5366_P21) (VL): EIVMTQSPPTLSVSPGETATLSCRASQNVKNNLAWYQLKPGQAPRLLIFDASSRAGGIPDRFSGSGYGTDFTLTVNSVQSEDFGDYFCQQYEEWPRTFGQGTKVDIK

Row | Substance | neutralization IC50 [1] [µg/mL] | neutralization IC50 [2] [µg/mL] | neutralization IC50 [3] [µg/mL] | neutralization IC50 [4] [µg/mL] | neutralization IC50 [5] [µg/mL] | neutralization IC50 [6] [µg/mL] | neutralization IC50 [7] [µg/mL] | neutralization IC50 [8] [µg/mL] | neutralization IC50 [9] [µg/mL] | neutralization IC50 [10] [µg/mL] | neutralization IC50 [11] [µg/mL] | neutralization IC50 [12] [µg/mL] | neutralization IC50 [13] [µg/mL] | neutralization IC50 [14] [µg/mL] | neutralization IC50 [15] [µg/mL] | neutralization IC50 [16] [µg/mL] | neutralization IC50 [17] [µg/mL] | neutralization IC50 [18] [µg/mL] | neutralization IC50 [19] [µg/mL] | neutralization IC50 [20] [µg/mL] | further results
1 | PGT-130 monoclonal antibody (5147_N06) | 0.031 | 1.4 | 0.02 | 8.55 | 0.021 | 1.32 | > 50 | 0.052 | 10.7 | > 50 | > 50 | 0.01 | 0.046 | > 50 | > 50 | > 50 | 0.01 | 5.18 | 0.006 | 0.153 | neutralization IC50 [21]: 0.373 µg/mL; neutralization IC50 [22]: > 50 µg/mL; neutralization IC50 [23]: 31.9 µg/mL; neutralization IC50 [24]: 0.014 µg/mL; neutralization IC50 [25]: > 50 µg/mL; neutralization IC50 [26]: 5.78 µg/mL; neutralization IC50 [27]: > 50 µg/mL; neutralization IC50 [28]: 5.17 µg/mL; neutralization IC50 [29]: > 50 µg/mL; neutralization IC50 [30]: > 50 µg/mL; neutralization IC50 [31]: 0.007 µg/mL; neutralization IC50 [32]: > 50 µg/mL; neutralization IC50 [33]: 0.023 µg/mL; neutralization IC50 [34]: 0.257 µg/mL; neutralization IC50 [35]: 4.6 µg/mL
2 | PGT-131 monoclonal antibody (5136_H01) | 0.056 | 6.16 | 0.177 | > 50 | 0.016 | 1.81 | > 50 | 0.189 | > 50 | > 50 | > 50 | 0.029 | 0.454 | > 50 | > 50 | > 50 | 0.04 | > 50 | 0.016 | 6.47 | neutralization IC50 [21]: 15.7 µg/mL; neutralization IC50 [22]: > 50 µg/mL; neutralization IC50 [23]: > 50 µg/mL; neutralization IC50 [24]: 0.053 µg/mL; neutralization IC50 [25]: > 50 µg/mL; neutralization IC50 [26]: > 50 µg/mL; neutralization IC50 [27]: > 50 µg/mL; neutralization IC50 [28]: > 50 µg/mL; neutralization IC50 [29]: > 50 µg/mL; neutralization IC50 [30]: > 50 µg/mL; neutralization IC50 [31]: 0.025 µg/mL; neutralization IC50 [32]: > 50 µg/mL; neutralization IC50 [33]: 0.088 µg/mL; neutralization IC50 [34]: 1.91 µg/mL; neutralization IC50 [35]: > 50 µg/mL
3 | PGT-135 monoclonal antibody (5343_B08; 5344_E16) | > 50 | 0.073 | 0.011 | > 50 | > 50 | > 50 | 0.014 | 0.716 | > 50 | > 50 | 5.15 | 0.131 | > 50 | > 50 | > 50 | > 50 | > 50 | > 50 | > 50 | > 50 | neutralization IC50 [21]: 0.166 µg/mL; neutralization IC50 [22]: > 50 µg/mL; neutralization IC50 [23]: > 50 µg/mL; neutralization IC50 [24]: 0.057 µg/mL; neutralization IC50 [25]: 0.329 µg/mL; neutralization IC50 [26]: > 50 µg/mL; neutralization IC50 [27]: 8.03 µg/mL; neutralization IC50 [28]: > 50 µg/mL; neutralization IC50 [29]: > 50 µg/mL; neutralization IC50 [30]: 21.8 µg/mL; neutralization IC50 [31]: 0.023 µg/mL; neutralization IC50 [32]: > 50 µg/mL; neutralization IC50 [33]: > 50 µg/mL; neutralization IC50 [34]: 0.03 µg/mL; neutralization IC50 [35]: 0.142 µg/mL
4 | PGT-136 monoclonal antibody (5329_C19; 5366_P21) | > 50 | 8.61 | 0.011 | > 50 | 20.2 | > 50 | 13.6 | > 50 | > 50 | > 50 | > 50 | > 50 | > 50 | > 50 | > 50 | > 50 | > 50 | > 50 | > 50 | > 50 | neutralization IC50 [21]: 43.1 µg/mL; neutralization IC50 [22]: > 50 µg/mL; neutralization IC50 [23]: > 50 µg/mL; neutralization IC50 [24]: > 50 µg/mL; neutralization IC50 [25]: > 50 µg/mL; neutralization IC50 [26]: > 50 µg/mL; neutralization IC50 [27]: 27.7 µg/mL; neutralization IC50 [28]: > 50 µg/mL; neutralization IC50 [29]: > 50 µg/mL; neutralization IC50 [30]: > 50 µg/mL; neutralization IC50 [31]: 0.482 µg/mL; neutralization IC50 [32]: > 50 µg/mL; neutralization IC50 [33]: > 50 µg/mL; neutralization IC50 [34]: 0.073 µg/mL; neutralization IC50 [35]: > 50 µg/mL
5 | PGT-137 monoclonal antibody (5345_I01) | > 50 | 7.81 | 0.042 | > 50 | > 50 | > 50 | 0.408 | > 50 | > 50 | > 50 | > 50 | > 50 | > 50 | > 50 | > 50 | > 50 | > 50 | > 50 | > 50 | > 50 | neutralization IC50 [21]: > 50 µg/mL; neutralization IC50 [22]: > 50 µg/mL; neutralization IC50 [23]: > 50 µg/mL; neutralization IC50 [24]: 32.9 µg/mL; neutralization IC50 [25]: > 50 µg/mL; neutralization IC50 [26]: > 50 µg/mL; neutralization IC50 [27]: 17.4 µg/mL; neutralization IC50 [28]: > 50 µg/mL; neutralization IC50 [29]: > 50 µg/mL; neutralization IC50 [30]: > 50 µg/mL; neutralization IC50 [31]: 3.41 µg/mL; neutralization IC50 [32]: > 50 µg/mL; neutralization IC50 [33]: > 50 µg/mL; neutralization IC50 [34]: 9.35 µg/mL; neutralization IC50 [35]: 3.36 µg/mL
